From PMC10338489, “Structural and photophysical characterization of the small ultra-red fluorescent protein” (Nature Communications, 2023)
Several values for one entry are separate records, joined by “and”; a condition that tells them apart may be missing. Equal entries are not always repeated. Values belong to the molecule of their own block, whether it stands above or below them.

Tests used:
smURFP H61R = experiment: native gel or EMSA; NativePAGE 4-16% Bis-Tris gel, 0.27 μg purified protein per lane, without and with 100 mM DTT; Coomassie stain and far-red fluorescence; homodimeric smURFP used as a size reference
[1] = target: the molecule itself; experiment: cell-based or functional assay
[2] = target: the molecule itself; experiment: crystal structure; apo-smURFP crystallised from smURFP with 20% BV attached; hanging drop, 20 °C, 4 M Na nitrate + 0.1 M NaOAc (pH 4.6); 2.8 Å, space group C222(1), six protomers (three homodimers) in the asymmetric unit

- OSER assay in HEK293A cells expressing CytERM-mGFP: ratio of the MFI of the OSER structure to the MFI of the nuclear envelope, after 24 and 48 h (CytERM-mGFP): < 2.3
Molecule: CytERM-mGFP

- stoichiometry N (smURFP H61R): 2 and > 2
Molecule: smURFP H61R

B1: small Ultra-Red Fluorescent Protein (smURFP) (other)
chain: MKTSEQRVNIATLLTENKKKIVDKASQDLWRRHPDLIAPGGIAFSQRDRALCLRDYGWFLHLITFCLLAGDKGPIESIGLISIREMYNSLGVPVPAMMESIRCLKEASLSLLDEEDANETAPYFDYIIKAMS
modifications: biliverdin (BV) covalently attached to C52 in part of the protein (20% BV with high expression); the crystal holds apo-smURFP
- OSER assay in HEK293A cells expressing CytERM-smURFP: ratio of the MFI of the OSER structure to the MFI of the nuclear envelope, after 24 h (4.8) and 48 h (3.7) [1]: 4.8
- stoichiometry N [2]: 2
